The source of these data is patent US20230218739A1.

Values joined by “and” are separate entries in the source; they are usually repeats but may differ in a detail not shown here. Equal entries are not always repeated. Where two headings read alike, the source gives them in different places. A value given as a limit tells only on which side of the number the result lay.

Assay [1] deals with Influenza HA-Trimer (exemplary fusion protein comprising HA (Influenza A virus A/California/07/2009-pdm (H1N1))). As to the kind of experiment: biolayer interferometry (Octet), […]. In general terms: In BLI a coated tip is dipped into the sample, and binding shifts an interference pattern.
In assay [2] the target is recombinant HA produced from insect cells. Kind of assay: ForteBio Octet molecular interaction analysis.
In assay [3] the target is Rabies G-Trimer (CTN-1 Strain) (ectodomain of rabies CTN-1 strain G protein fused in frame to Trimer-Tag) (Rabies virus CTN-1 strain).
Assay [4] shares this target. This is another data set of the same source.
Assay [5] has the same target. This is another data set of the same source.

What is called Kd is the concentration at which binding is half-saturated. Consider “CR6261 (broadly neutralizing anti-HA antibody, ACRO Biosystems)”, for which the Kd in assay [1] was under 0.001 nM; in assay [2], 3.8 nM.

Turning to HDCV, the p75 Competitive titer IC50 GMT is 87 in assay [3]; 30 and 25 in assay [5]. In addition, the CTN-1 Specific IgG titer (End point) in assay [4] was 57 and 33.
